Biological target: AeCRK^G359E-mCherry (Aeschynomene evenia)
Assay: co-IP

Substance	fold enrichment compared to the negative control MtLYK3-CFP [fold]
AeCRK^G359E-mCherry (receptor)	7.37
AeRLCK2-YFP (natural protein)	2.9

— paper doi:10.1101/2024.07.10.602847
